Data as given in the supplement of paper PMC10724198.
± gives the standard deviation of the averaged measurements.

Legend:
Saccharomyces cerevisiae [1] = assay: protein stability index of tFT-peptide fusion (C-terminal peptide) (PSI (0-1 scale)); higher = more stable (slower turnover)
Method: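 MPS profiling in S. cerevisiae of the tFT-X12 degron library: putative degron peptides plus stable controls, 12 aa, fused to the C-terminus of a sfGFP-mCherry timer. Cells are FACS-sorted into 8 mCherry/sfGFP bins and deep-sequenced. PSI runs from 0 (unstable) to 1 (stable). Backgrounds are wild type, das1Δ and doa10Δ at 30 °C, and wild type, das1Δ, cdc34-1 and cdc53-1 at 37 °C; 2-3 technical replicates each.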

Saccharomyces cerevisiae [2] = assay: as above; details: genetic background: wild type; temperature: 30 C
[3] = genetic background: cdc34-1, temperature: 37 C
[4] = genetic background: cdc53-1, temperature: 37 C
[5] = genetic background: das1 deletion, temperature: 30 C
[6] = genetic background: das1 deletion, temperature: 37 C
[7] = genetic background: doa10 deletion, temperature: 30 C
[8] = genetic background: wild type, temperature: 30 C
[9] = genetic background: wild type, temperature: 37 C
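Note: PSI is a weighted mean of sequencing reads over stability bins, variants kept only with over 10 reads, mCherry proximal and sfGFP distal, peptide attached via GGGS linker.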

| Sequence | protein stability index (Saccharomyces cerevisiae [1]; [3]) | protein stability index (Saccharomyces cerevisiae [1]; [4]) | protein stability index (Saccharomyces cerevisiae [1]; [5]) | protein stability index (Saccharomyces cerevisiae [1]; [6]) | protein stability index (Saccharomyces cerevisiae [1]; [7]) | protein stability index (Saccharomyces cerevisiae [1]; [8]) | protein stability index (Saccharomyces cerevisiae [1]; [9]) | protein stability index (Saccharomyces cerevisiae [2]) |
| --- | --- | --- | --- | --- | --- | --- | --- | --- |
| LSRRFSLALFWT | 0.57 ± 0.016 | 0.683 ± 0.051 | 0.654 ± 0.0085 | 0.707 ± 0.026 | 0.1762 ± 0.0015 | 0.197 ± 0.031 | 0.317 ± 0.0078 | 0.279 ± 0.012 |
| LSSRGGRCRRLV | 0.714 ± 0.059 | 0.727 ± 0.028 | 0.652 ± 0.016 | 0.7555 ± 0.0039 | 0.321 ± 0.0092 | 0.37 ± 0.013 | 0.588 ± 0.017 | 0.481 ± 0.037 |
| LVFAFFLLSFFI | 0.478 ± 0.035 | 0.554 ± 0.015 | 0.478 ± 0.047 | 0.549 ± 0.00087 | 0.481 ± 0.025 | 0.466 ± 0.027 | 0.541 ± 0.02 | 0.425 ± 0.0078 |
| LVFSFFFLFFFM | 0.449 ± 0.053 | 0.47 ± 0.029 | 0.375 ± 0.03 | 0.46047 ± 0.00043 | 0.375 ± 0.027 | 0.287 ± 0.05 | 0.442 ± 0.11 | 0.394 ± 0.044 |
| LVLFYLWSSVWA | 0.4 ± 0.014 | 0.445 ± 0.0055 | 0.29 ± 0.032 | 0.4726 ± 0.0018 | 0.251 ± 0.01 | 0.279 ± 0.034 | 0.441 ± 0.0095 | 0.3819 ± 0.0021 |
| LVLLIQKFLTDK | 0.7442 ± 0.0063 | 0.7187 ± 0.0016 | 0.609 ± 0.024 | 0.695 ± 0.079 | 0.59 ± 0.017 | 0.617 ± 0.052 | 0.675 ± 0.015 | 0.553 ± 0.086 |
| LVLSFVMLVSGH | 0.183 ± 0.014 | 0.313 ± 0.02 | 0.202 ± 0.013 | 0.384 ± 0.031 | 0.149 ± 0.0053 | 0.185 ± 0.024 | 0.343 ± 0.024 | 0.289 ± 0.012 |
| LVPVWVGLRVLF | 0.422 ± 0.021 | 0.429 ± 0.0053 | 0.354 ± 0.042 | 0.537 ± 0.015 | 0.347 ± 0.018 | 0.328 ± 0.022 | 0.506 ± 0.014 | 0.421 ± 0.065 |
| LVSCGNFLVFCF | 0.299 ± 0.0056 | 0.311 ± 0.025 | 0.234 ± 0.021 | 0.387 ± 0.0079 | 0.211 ± 0.0058 | 0.234 ± 0.013 | 0.355 ± 0.0037 | 0.324 ± 0.0072 |
| LVSSYVPFFFAL | 0.6057 ± 0.0033 | 0.717 ± 0.046 | 0.664 ± 0.0071 | 0.752 ± 0.011 | 0.25 ± 0.0073 | 0.29 ± 0.031 | 0.388 ± 0.015 | 0.342 ± 0.011 |
| LVSVLLLFWFLF | 0.4146 ± 0.00025 | 0.368 ± 0.014 | 0.358 ± 0.05 | 0.515 ± 0.037 | 0.344 ± 0.021 | 0.324 ± 0.013 | 0.475 ± 0.017 | 0.394 ± 0.069 |
| LVYCWFAEYFLV | 0.323 ± 0.043 | 0.561 ± 0.011 | 0.448 ± 0.027 | 0.586 ± 0.0069 | 0.0883 ± 0.016 | 0.106 ± 0.0044 | 0.0859 ± 0.017 | 0.169 ± 0.027 |
| LVYLVCAYSECE | 0.44 ± 0.015 | 0.463 ± 0.039 | 0.275 ± 0.039 | 0.477 ± 0.0062 | 0.242 ± 0.019 | 0.274 ± 0.0093 | 0.477 ± 0.0088 | 0.332 ± 0.02 |
| LWCLVWGGVWGV | 0.458 ± 0.014 | 0.5417 ± 0.005 | 0.353 ± 0.041 | 0.555 ± 0.0028 | 0.34 ± 0.0085 | 0.343 ± 0.039 | 0.508 ± 0.012 | 0.447 ± 0.009 |
| LWFVIYLLCFFV | 0.394 ± 0.015 | 0.395 ± 0.0045 | 0.328 ± 0.022 | 0.482 ± 0.024 | 0.285 ± 0.0031 | 0.291 ± 0.04 | 0.452 ± 0.0078 | 0.348 ± 0.029 |
| MFFSWVLSISLT | 0.0242 ± 0.0074 | 0.058 ± 0.011 | 0.0335 ± 0.0093 | 0.0704 ± 0.0084 | 0.024 ± 0.0024 | 0.0234 ± 0.0076 | 0.0577 ± 0.011 | 0.0454 ± 0.021 |
| MIVAIQLVDHPP | 0.459 ± 0.033 | 0.547 ± 0.0094 | 0.414 ± 0.013 | 0.522 ± 0.0075 | 0.409 ± 0.016 | 0.426 ± 0.028 | 0.509 ± 0.034 | 0.484 ± 0.044 |
| MLECIIHLTITR | 0.417 ± 0.072 | 0.577 ± 0.095 | 0.431 ± 0.038 | 0.507 ± 0.011 | 0.4306 ± 0.0039 | 0.444 ± 0.038 | 0.491 ± 0.019 | 0.483 ± 0.025 |
| MLSVVSFVSCTC | 0.181 ± 0.0023 | 0.17 ± 0.021 | 0.197 ± 0.017 | 0.29 ± 0.0063 | 0.1631 ± 0.0015 | 0.191 ± 0.027 | 0.237 ± 0.0063 | 0.255 ± 0.012 |
| MRVYLVLWADSC | 0.236 ± 0.034 | 0.345 ± 0.026 | 0.197 ± 0.015 | 0.361 ± 0.017 | 0.19 ± 0.015 | 0.184 ± 0.0039 | 0.337 ± 0.00094 | 0.247 ± 0.058 |

| Sequence | protein stability index (Saccharomyces cerevisiae [1]; [3]) | protein stability index (Saccharomyces cerevisiae [1]; [4]) | protein stability index (Saccharomyces cerevisiae [1]; [5]) | protein stability index (Saccharomyces cerevisiae [1]; [6]) | protein stability index (Saccharomyces cerevisiae [1]; [7]) | protein stability index (Saccharomyces cerevisiae [1]; [8]) | protein stability index (Saccharomyces cerevisiae [1]; [9]) | protein stability index (Saccharomyces cerevisiae [2]) |
| --- | --- | --- | --- | --- | --- | --- | --- | --- |
| MSIWKIFIWRLG | 0.524 ± 0.017 | 0.627 ± 0.037 | 0.494 ± 0.019 | 0.648 ± 0.028 | 0.132 ± 0.013 | 0.153 ± 0.024 | 0.2694 ± 0.00052 | 0.263 ± 0.019 |
| MVAHTVRVKCGI | 0.638 ± 0.049 | 0.66 ± 0.021 | 0.544 ± 0.031 | 0.674 ± 0.0096 | 0.557 ± 0.016 | 0.56 ± 0.056 | 0.6622 ± 0.0012 | 0.547 ± 0.13 |
| MVVILLVHWEYV | 0.15 ± 0.011 | 0.222 ± 0.032 | 0.172 ± 0.035 | 0.321 ± 0.017 | 0.17 ± 0.0031 | 0.171 ± 0.025 | 0.2768 ± 0.0012 | 0.262 ± 0.017 |
| MWFFFICYFLSV | 0.277 ± 0.0059 | 0.361 ± 0.034 | 0.246 ± 0.049 | 0.411 ± 0.015 | 0.262 ± 0.021 | 0.249 ± 0.02 | 0.369 ± 0.0076 | 0.263 ± 0.0072 |
| MYESIRILVNKV | 0.62 ± 0.015 | 0.707 ± 0.016 | 0.62 ± 0.022 | 0.697 ± 0.015 | 0.226 ± 0.0021 | 0.326 ± 0.038 | 0.491 ± 0.02 | 0.457 ± 0.052 |
| NFCVLLQFCVLV | 0.437 ± 0.023 | 0.477 ± 0.023 | 0.36 ± 0.024 | 0.4832 ± 0.0002 | 0.364 ± 0.017 | 0.36 ± 0.02 | 0.448 ± 0.0074 | 0 |
| NFSLFVHFLGLC | 0.668 ± 0.047 | 0.703 ± 0.024 | 0.606 ± 0.021 | 0.687 ± 0.027 | 0.361 ± 0.0091 | 0.399 ± 0.023 | 0.608 ± 0.025 | 0.445 ± 0.052 |
| NNGLLLDILIKA | 0.388 ± 0.034 | 0.399 ± 0.073 | 0.28 ± 0.044 | 0.463 ± 0.021 | 0.248 ± 0.0094 | 0.295 ± 0.028 | 0.4517 ± 0.0037 | 0.364 ± 0.059 |
| NTNITHHSVKLR | 0.671 ± 0.017 | 0.7346 ± 0.0071 | 0.64 ± 0.026 | 0.712 ± 0.044 | 0.644 ± 0.024 | 0.662 ± 0.038 | 0.689 ± 0.036 | 0.727 ± 0.034 |
| NVWCWGASCFFC | 0.709 ± 0.048 | 0.797 ± 0.01 | 0.684 ± 0.0069 | 0.773 ± 0.0087 | 0.3367 ± 0.0033 | 0.36 ± 0.021 | 0.561 ± 0.025 | 0.447 ± 0.023 |
| PALLLFLRNLLL | 0.714 ± 0.022 | 0.7282 ± 0.0042 | 0.6419 ± 0.0029 | 0.757 ± 0.017 | 0.304 ± 0.018 | 0.352 ± 0.059 | 0.542 ± 0.009 | 0.447 ± 0.012 |
| PAPANRPTPRPV | 0.666 ± 0.041 | 0.7177 ± 0.006 | 0.661 ± 0.03 | 0.722 ± 0.011 | 0.652 ± 0.014 | 0.6256 ± 0.006 | 0.7517 ± 0.0059 | 0.7 ± 0.028 |
| PCVCFIILGMLS | 0.42 ± 0.013 | 0.515 ± 0.012 | 0.322 ± 0.035 | 0.563 ± 0.01 | 0.285 ± 0.013 | 0.308 ± 0.016 | 0.52 ± 0.021 | 0.449 ± 0.012 |
| PFARIIDILLVI | 0.486 ± 0.022 | 0.5346 ± 0.0045 | 0.404 ± 0.042 | 0.5395 ± 0.00065 | 0.298 ± 0.0017 | 0.315 ± 0.022 | 0.495 ± 0.061 | 0.41 ± 0.026 |
| PFIPLLLAPALA | 0.4032 ± 0.0011 | 0.409 ± 0.0068 | 0.297 ± 0.036 | 0.458 ± 0.0089 | 0.275 ± 0.0074 | 0.307 ± 0.023 | 0.4205 ± 0.00058 | 0.441 ± 0.1 |
| PFPRCRLIFFFM | 0.5172 ± 0.0045 | 0.7266 ± 0.0031 | 0.549 ± 0.025 | 0.742 ± 0.043 | 0.106 ± 0.0088 | 0.115 ± 0.017 | 0.139 ± 0.019 | 0.171 ± 0.045 |
| PFRSAYYLLFLL | 0.496 ± 0.048 | 0.6347 ± 0.0016 | 0.54 ± 0.013 | 0.6738 ± 0.00079 | 0.122 ± 0.015 | 0.118 ± 0.0092 | 0.161 ± 0.026 | 0.205 ± 0.035 |
| PFVATRVSCFLT | 0.542 ± 0.013 | 0.704 ± 0.024 | 0.626 ± 0.087 | 0.685 ± 0.0089 | 0.339 ± 0.004 | 0.39 ± 0.05 | 0.4393 ± 0.00057 | 0.414 ± 0.015 |
| PHFDLLLCLSLN | 0.625 ± 0.026 | 0.753 ± 0.057 | 0.676 ± 0.049 | 0.718 ± 0.018 | 0.248 ± 0.032 | 0.257 ± 0.033 | 0.521 ± 0.016 | 0.366 ± 0.0045 |
